From patent US20230407373A1 (priority 2020, published 2023)

B1: SPATS2 (protein, UniProt Q86XZ4 1-545, looked up)
Spermatogenesis-associated …: MSRKQNQKDSSGFIFDLQSNTVLAQGGAFENMKEKINAVRAIVPNKSNNEIILVLQHFDNCVDKTVQAFMEGSASEVLKEWTVTGKKKNKKKKNKPKPAAEPSNGIPDSSKSVSIQEEQSAPSSEKGGMNGYHVNGAINDTESVDSLSEGLETLSIDARELEDPESAMLDTLDRTGSMLQNGVSDFETKSLTMHSIHNSQQPRNAAKSLSRPTTETQFSNMGMEDVPLATSKKLSSNIEKSVKDLQRCTVSLARYRVVVKEEMDASIKKMKQAFAELESCLMDREVALLAEMDKVKAEAMEILLSRQKKAELLKKMTHVAVQMSEQQLVELRADIKHFVSERKYDEDLGRVARFTCDVETLKKSIDSFGQVSHPKNSYSTRSRCSSVTSVSLSSPSDASAASSSTCASPPSLTSANKKNFAPGETPAAIANSSGQPYQPLREVLPGNRRGGQGYRPQGQKSNDPMNQGRHDSMGRYRNSSWYSSGSRYQSAPSQAPGNTIERGQTHSAGTNGTGVSMEPSPPTPSFKKGLPQRKPRTSQTEAVNS
B2: PCBP2 (protein, UniProt Q15366 1-365, looked up)
Poly(rC)-binding protein 2: MDTGVIEGGLNVTLTIRLLMHGKEVGSIIGKKGESVKKMREESGARINISEGNCPERIITLAGPTNAIFKAFAMIIDKLEEDISSSMTNSTAASRPPVTLRLVVPASQCGSLIGKGGCKIKEIRESTGAQVQVAGDMLPNSTERAITIAGIPQSIIECVKQICVVMLETLSQSPPKGVTIPYRPKPSSSPVIFAGGQDRYSTGSDSASFPHTTPSMCLNPDLEGPPLEAYTIQGQYAIPQPDLTKLHQLAMQQSHFPMTHGNTGFSGIESSSPEVKGYWGLDASAQTTSHELTIPNDLIGCIIGRQGAKINEIRQMSGAQIKIANPVEGSTDRQVTITGSAASISLAQYLINVRLSSETGGMGSS
B3: ZC3H7A: host protein, UniProt Q8IWRD (protein, UniProt Q8IWR0 1-971, looked up)
Zinc finger CCCH …: MSNVSEERRKRQQNIKEGLQFIQSPLSYPGTQEQYAVYLRALVRNLFNEGNDVYREHDWNNSISQYTEALNIADYAKSEEILIPKEIIEKLYINRIACYSNMGFHDKVLEDCNIVLSLNASNCKALYRKSKALSDLGRYKKAYDAVAKCSLAVPQDEHVIKLTQELAQKLGFKIRKAYVRAELSLKSVPGDGATKALNHSVEDIEPDLLTPRQEAVPVVSLPAPSFSHEVGSELASVPVMPLTSILPLQVEESALPSAVLANGGKMPFTMPEAFLDDGDMVLGDELDDLLDSAPETNETVMPSALVRGPLQTASVSPSMPFSASLLGTLPIGARYAPPPSFSEFYPPLTSSLEDFCSSLNSFSMSESKRDLSTSTSREGTPLNNSNSSLLLMNGPGSLFASENFLGISSQPRNDFGNFFGSAVTKPSSSVTPRHPLEGTHELRQACQICFVKSGPKLMDFTYHANIDHKCKKDILIGRIKNVEDKSWKKIRPRPTKTNYEGPYYICKDVAAEEECRYSGHCTFAYCQEEIDVWTLERKGAFSREAFFGGNGKINLTVFKLLQEHLGEFIFLCEKCFDHKPRMISKRNKDNSTACSHPVTKHEFEDNKCLVHILRETTVKYSKIRSFHGQCQLDLCRHEVRYGCLREDECFYAHSLVELKVWIMQNETGISHDAIAQESKRYWQNLEANVPGAQVLGNQIMPGFLNMKIKFVCAQCLRNGQVIEPDKNRKYCSAKARHSWTKDRRAMRVMSIERKKWMNIRPLPTKKQMPLQFDLCNHIASGKKCQYVGNCSFAHSPEEREVWTYMKENGIQDMEQFYELWLKSQKNEKSEDIASQSNKENGKQIHMPTDYAEVTVDFHCWMCGKNCNSEKQWQGHISSEKHKEKVFHTEDDQYCWQHRFPTGYFSICDRYMNGTCPEGNSCKFAHGNAELHEWEERRDALKMKLNKARKDHLIGPNDNDFGKYSFLFKDLN
B4: TIA1 (protein, UniProt P31483 1-386, looked up)
Cytotoxic granule associated …: MEDEMPKTLYVGNLSRDVTEALILQLFSQIGPCKNCKMIMDTAGNDPYCFVEFHEHRHAAAALAAMNGRKIMGKEVKVNWATTPSSQKKDTSSSTVVSTQRSQDHFHVFVGDLSPEITTEDIKAAFAPFGRISDARVVKDMATGKSKGYGFVSFFNKWDAENAIQQMGGQWLGGRQIRTNWATRKPPAPKSTYESNTKQLSYDEVVNQSSPSNCTVYCGGVTSGLTEQLMRQTFSPFGQIMEIRVFPDKGYSFVRFNSHESAAHAIVSVNGTTIEGHVVKCYWGKETLDMINPVQQQNQIGYPQPYGQWGQWYGNAQQIGQYMPNGWQVPAYGMYGQAWNQQGFNQTQSSAPWMGPNYGVQPPQGQNGSMLPNQPSGYRVAGYETQ
B5: RBMS2 (protein, UniProt Q15434 1-407, looked up)
RNA-binding motif, …: MLLSVTSRPGISTFGYNRNNKKPYVSLAQQMAPPSPSNSTPNSSSGSNGNDQLSKTNLYIRGLQPGTTDQDLVKLCQPYGKIVSTKAILDKTTNKCKGYGFVDFDSPSAAQKAVTALKASGVQAQMAKQQEQDPTNLYISNLPLSMDEQELEGMLKPFGQVISTRILRDTSGTSRGVGFARMESTEKCEAIITHFNGKYIKTPPGVPAPSDPLLCKFADGGPKKRQNQGKFVQNGRAWPRNADMGVMALTYDPTTALQNGFYPAPYNITPNRMLAQSALSPYLSSPVSSYQRVTQTSPLQVPNPSWMHHHSYLMQPSGSVLTPGMDHPISLQPASMMGPLTQQLGHLSLSSTGTYMPTAAAMQGAYISQYTPVPSSSVSVEESSGQQNQVAVDAPSEHGVYSFQFNK
B6: HNRNPA3 (protein, UniProt P51991 1-378, looked up)
Heterogeneous nuclear …: MEVKPPPGRPQPDSGRRRRRRGEEGHDPKEPEQLRKLFIGGLSFETTDDSLREHFEKWGTLTDCVVMRDPQTKRSRGFGFVTYSCVEEVDAAMCARPHKVDGRVVEPKRAVSREDSVKPGAHLTVKKIFVGGIKEDTEEYNLRDYFEKYGKIETIEVMEDRQSGKKRGFAFVTFDDHDTVDKIVVQKYHTINGHNCEVKKALSKQEMQSAGSQRGRGGGSGNFMGRGGNFGGGGGNFGRGGNFGGRGGYGGGGGGSRGSYGGGDGGYNGFGGDGGNYGGGPGYSSRGGYGGGGPGYGNQGGGYGGGGGYDGYNEGGNFGGGNYGGGGNYNDFGNYSGQQQSNYGPMKGGSFGGRSSGSPYGGGYGSGGGSGGYGSRRF
B7: ATXN2 (protein, UniProt Q99700 1-1313, looked up)
Ataxin-2: MRSAAAAPRSPAVATESRRFAAARWPGWRSLQRPARRSGRGGGGAAPGPYPSAAPPPPGPGPPPSRQSSPPSASDCFGSNGNGGGAFRPGSRRLLGLGGPPRPFVVLLLPLASPGAPPAAPTRASPLGARASPPRSGVSLARPAPGCPRPACEPVYGPLTMSLKPQQQQQQQQQQQQQQQQQQQQQQQPPPAAANVRKPGGSGLLASPAAAPSPSSSSVSSSSATAPSSVVAATSGGGRPGLGRGRNSNKGLPQSTISFDGIYANMRMVHILTSVVGSKCEVQVKNGGIYEGVFKTYSPKCDLVLDAAHEKSTESSSGPKREEIMESILFKCSDFVVVQFKDMDSSYAKRDAFTDSAISAKVNGEHKEKDLEPWDAGELTANEELEALENDVSNGWDPNDMFRYNEENYGVVSTYDSSLSSYTVPLERDNSEEFLKREARANQLAEEIESSAQYKARVALENDDRSEEEKYTAVQRNSSEREGHSINTRENKYIPPGQRNREVISWGSGRQNSPRMGQPGSGSMPSRSTSHTSDFNPNSGSDQRVVNGGVPWPSPCPSPSSRPPSRYQSGPNSLPPRAATPTRPPSRPPSRPSRPPSHPSAHGSPAPVSTMPKRMSSEGPPRMSPKAQRHPRNHRVSAGRGSISSGLEFVSHNPPSEAATPPVARTSPSGGTWSSVVSGVPRLSPKTHRPRSPRQNSIGNTPSGPVLASPQAGIIPTEAVAMPIPAASPTPASPASNRAVTPSSEAKDSRLQDQRQNSPAGNKENIKPNETSPSFSKAENKGISPVVSEHRKQIDDLKKFKNDFRLQPSSTSESMDQLLNKNREGEKSRDLIKDKIEPSAKDSFIENSSSNCTSGSSKPNSPSISPSILSNTEHKRGPEVTSQGVQTSSPACKQEKDDKEEKKDAAEQVRKSTLNPNAKEFNPRSFSQPKPSTTPTSPRPQAQPSPSMVGHQQPTPVYTQPVCFAPNMMYPVPVSPGVQPLYPIPMTPMPVNQAKTYRAVPNMPQQRQDQHHQSAMMHPASAAGPPIAATPPAYSTQYVAYSPQQFPNQPLVQHVPHYQSQHPHVYSPVIQGNARMMAPPTHAQPGLVSSSATQYGAHEQTHAMYACPKLPYNKETSPSFYFAISTGSLAQQYAHPNATLHPHTPHPQPSATPTGQQQSQHGGSHPAPSPVQHHQHQAAQALHLASPQQQSAIYHAGLAPTPPSMTPASNTQSPQNSFPAAQQTVFTIHPSHVQPAYTNPPHMAHVPQAHVQSGMVPSHPTAHAPMMLMTTQPPGGPQAALAQSALQPIPVSTTAHFPYMTHPSVQAHHQQQL

Columns and labels:
[1] = system: SARS-CoV-2 gRNA and sgRNAs; format: binding; settings: for background (unweighted spectral count in control): no-probe control pull-down, used as background for Probe II; for target (unweighted spectral count in RNP capture): Probe II capture, LC-MS/MS LFQ
[2] = system: HCoV-OC43 gRNA and sgRNA; format: binding; settings: for target (unweighted spectral count): OC43 Probe II, 24 hpi (type n_24_v), infected cells; for target (unweighted spectral count) / target (unweighted spectral count, OC43 Probe II capture): tested against no-probe control; for target (unweighted spectral count, OC43 Probe II capture): type n_36_v, FDR<10%; for target (unweighted spectral count, OC43 Probe II) / background (unweighted spectral count, no-probe control): type n_48_v, 48 hpi; for target (unweighted spectral count, OC43 Probe II): OC43 Probe II capture on infected cells; for background (unweighted spectral count, no-probe control): no-probe control on infected cells

Row | Molecule | target (unweighted spectral count of the protein in the RNP capture experiment) ([1]; […], LC-MS/MS label-free quantification, probe pool not given) | back-ground (unweighted spectral count of the protein in the control experiment) ([1]; protein background of the control (e.g. no-probe) experiment, […]) | background (unweighted spectral count in control) [1] | target (unweighted spectral count) [2] | target (unweighted spectral count in RNP capture) ([1]; […]) | target (unweighted spectral count, OC43 Probe II capture) ([2]; 36 hpi) | target (unweighted spectral count, OC43 Probe II) [2] | background (unweighted spectral count, no-probe control) [2] | target (spectral count) ([2]; type s_36_m, HCoV-OC43-infected HCT-8 cells, 36 hpi, Probe II) | background (spectral count) ([2]; type s_36_m, uninfected-probe control, 36 hpi, Probe II)
1 | B1 | 5 | 1 | – | – | – | – | – | – | – | –
2 | B2 | – | – | 1 | 10 | – | – | – | – | – | –
3 | B3 | – | – | 1 | 8 | 14 | 9 | 9 | 1 | 9 | 1
4 | B4 | – | – | 1 | – | 11 | 6 | – | – | – | –
5 | B5 | – | – | 1 | – | 14 | 4 | – | – | – | –
6 | B6 | – | – | 1 | 22 | 51 | 25 | – | – | – | –
7 | B7 | – | – | 1 | – | 22 | 4 | 6 | 1 | – | –
